We go through six molecules from paper PMC3859622, “Functional Characterization of ECP-Heparin Interaction: A Novel Molecular Model” (PLoS ONE, 2013).

Where “and” joins values, the source holds several entries; their conditions need not be identical. Equal values may be shown once.

Data set [1] deals with yeast tRNA. Put plainly: Ribonuclease activity, yeast tRNA digestion. It is filed as biochemical. Particulars: yeast tRNA cleavage, 37 °C, 15 min, pH 7.4. The method, then:
Ribonuclease activities of recombinant wtECP and mutant ECPs were measured using yeast tRNA (Invitrogen, USA) digestion method, using bovine pancreatic RNaseA (USB, USA) as positive control. Three hundred microliters of 100 mM sodium phosphate buffer, pH 7.4, and 500 μl diethylpyrocarbonate-ddH2O were mixed with 50 μl 0.05 μM RNaseA and 5 μM wtECP or each mutant ECP separately. Ten microliters of 5 mg/ml yeast tRNA was added and incubated at 37 °C for 0, 5, 10 and 15 min. Ice-cold 500 μl stop solution (1:1, v/v, 40 mM lanthanum nitrate and 6% perchloric acid) was added and shaken for 10 min to stop reaction. Intact yeast tRNA was […] by centrifugation at 16,100 × g at 25 °C for 5 min. One hundred microliters of supernatant in each tube was placed on to a 96-well plate. The amount of soluble tRNA in supernatant was determined by A260 nm. The calculation has been described previously.

The test system of data set [2] is yeast tRNA. Also noted: method as in PMID 9649619. Conditions: cited from earlier work.
On the set-up of data set [3]: method as in PMID 9357326. Particulars: relative to EDN; cited from earlier work.

B1: Bovine RNase A: bovine pancreatic RNaseA (USB), positive control (protein, UniProt P61823 27-150, looked up)
Ribonuclease pancreatic: KETAAAKFERQHMDSSTSAASSSNYCNQMMKSRNLTKDRCKPVNTFVHESLADVQAVCSQKNVACKNGQTNCYQSYSTMSITDCRETGSSKYPNCAYKTTQANKHIIVACEGNPYVPVHFDASV
In the case of B1, the figures for the RNase activity with yeast tRNA [1] and in the data set with yeast tRNA [1] (listed as bovine RNaseA) were 1.1710 ± 0.0131 soluble tRNA/pmol and 1.171 soluble tRNA/pmol, respectively. Further, the “RNase activity, reported number” value with yeast tRNA [2] was 1.208 soluble tRNA/pmol.

B2: wtECP: recombinant wild type human eosinophil cationic protein with C-terminal His6 tag, refolded from E. coli (protein, UniProt P12724 28-160, looked up)
Eosinophil cationic protein: RPPQFTRAQWFAIQHISLNPPRCTIAMRAINNYRWRCKNQNTFLRTTFANVVNVCGNQSIRCPHNRTLNNCHRSRFRVPLLHCDLINPGAQNISNCTYADRPGRRFYVVACDNRDPRDSPRYPVVPVHLDTTI
modifications: C-terminal His6 tag
With B2, in data set [3], the “Ribonucleolytic activity of EDN” value is listed as 1%. For the same molecule, the RNase activity with yeast tRNA [1] is 0.0049 soluble tRNA/pmol and 0.0049 ± 0.0001 soluble tRNA/pmol.

B3: R105A: single mutant recombinant ECP, Arg105 to Ala (protein, UniProt P12724 28-160, looked up, variant R105A)
Eosinophil cationic protein: RPPQFTRAQWFAIQHISLNPPRCTIAMRAINNYRWRCKNQNTFLRTTFANVVNVCGNQSIRCPHNRTLNNCHRSRFRVPLLHCDLINPGAQNISNCTYADRPGRAFYVVACDNRDPRDSPRYPVVPVHLDTTI
With B3, the RNase activity in the data set with yeast tRNA [1] is 0.0032 soluble tRNA/pmol and 0.0032 ± 0.0002 soluble tRNA/pmol.

B4: H64A: single mutant recombinant ECP, His64 to Ala (protein, UniProt P12724 28-160, looked up, variant H64A)
Eosinophil cationic protein: RPPQFTRAQWFAIQHISLNPPRCTIAMRAINNYRWRCKNQNTFLRTTFANVVNVCGNQSIRCPANRTLNNCHRSRFRVPLLHCDLINPGAQNISNCTYADRPGRRFYVVACDNRDPRDSPRYPVVPVHLDTTI
On to B4, for which the RNase activity in the data set on yeast tRNA [1] was 0.0068 soluble tRNA/pmol and 0.0068 ± 0.0001 soluble tRNA/pmol.

B5: Q40A/H64A: double mutant recombinant ECP, Gln40 and His64 to Ala (protein, UniProt P12724 28-160, looked up, variant Q40A H64A)
Eosinophil cationic protein: RPPQFTRAQWFAIQHISLNPPRCTIAMRAINNYRWRCKNANTFLRTTFANVVNVCGNQSIRCPANRTLNNCHRSRFRVPLLHCDLINPGAQNISNCTYADRPGRRFYVVACDNRDPRDSPRYPVVPVHLDTTI
Regarding B5, the RNase activity in the data set with yeast tRNA [1] is 0.0056 soluble tRNA/pmol and 0.0056 ± 0.0002 soluble tRNA/pmol.

B6: Q40A: single mutant recombinant ECP, Gln40 to Ala (protein, UniProt P12724 28-160, looked up, variant Q40A)
Eosinophil cationic protein: RPPQFTRAQWFAIQHISLNPPRCTIAMRAINNYRWRCKNANTFLRTTFANVVNVCGNQSIRCPHNRTLNNCHRSRFRVPLLHCDLINPGAQNISNCTYADRPGRRFYVVACDNRDPRDSPRYPVVPVHLDTTI
In the case of B6, in the data set with yeast tRNA [1], the RNase activity was 0.0043 soluble tRNA/pmol and 0.0043 ± 0.0001 soluble tRNA/pmol.
